This note sets out measurements from patent US5925540A, “Synthetic antifreeze peptide and synthetic gene coding for its production” (Virginia Tech Intellectual Properties, Inc., priority 1991, dated 1999).

This series relates to JM109(DE3). The series is described as follows: Studies of cell viability in JM109(DE3) strains bearing pX28 or pX284 after IPTG induction. The series is classed as cell-based, E.coli. Conditions: WF8R expressed as P10 fusion protein from pX28 / pX284; effects more pronounced in the pX28 harboring strain. The text has this:
The pX28 and pX284 were transformed into JM109(DE3). The proteins produced in either the JM109(DE3)[pX28] or in the JM109(DE3)[pX284] after induction by IPTG in mid- or late-logarithmic growth phase, have been analyzed by sodium dodecyl sulfate (SDS)-polyacrylamide gel electrophoresis (SDS-PAGE). […] Studies of cell viability in these strains have shown that both strains are adversely affected with respect to growth and stability of the plasmid (these effects were more pronounced in the pX28 harboring strain). […] To avert this problem the applicants decided to protect the fusion protein from intracellular degradation, as well as to protect the cells from the toxicity of WF8R, by adding to the fusion a C-terminal end derived from E.coli β-galactosidase.

B1: WF8R: synthetic antifreeze peptide of 98 amino acids with eight eleven-amino-acid repeats, modeled on winter flounder AFP, expressed in E. coli (protein)
chain: MSTASDAAAAAAATAATAAAAAAATAATAAAAAAATAATAAAAAAATAATAAAAAAATAATAAAAAAATAATAAKAAALTAANAAAAAAATAAAAARG
For the molecule B1, the “toxicity to the host cells (growth and stability of the plasmid adversely affected)” value is listed as “toxic to the cells”.
